Reference: article PMC13330650, “Phosphorylation of UDP-glucose dehydrogenase increases glycosaminoglycan biosynthesis and promotes tumor cell motility, spheroid growth, and therapeutic resistance” (Matrix biology : journal of the International Society for …, 2025)
Positions count from the first letter of the chain named. Names may count otherwise. “And” between values parts separate entries of the source, which are not always exact repeats. Identical values can stand only once.

B1: UGDH S316A, phosphodeficient point mutant, recombinant (enzyme, human, UniProt O60701 1-494, looked up)
chain: MFEIKKICCIGAGYVGGPTCSVIAHMCPEIRVTVVDVNESRINAWNSPTLPIYEPGLKEVVESCRGKNLFFSTNIDDAIKEADLVFISVNTPTKTYGMGKGRAADLKYIEACARRIVQNSNGYKIVTEKSTVPVRAAESIRRIFDANTKPNLNLQVLSNPEFLAEGTAIKDLKNPDRVLIGGDETPEGQRAVQALCAVYEHWVPREKILTTNTWSSELSKLAANAFLAQRISSINSISALCEATGADVEEVATAIGMDQRIGNKFLKASVGFGGSCFQKDVLNLVYLCEALNLPEVARYWQQVIDMNDYQRRRFAARIIDSLFNTVTDKKIAILGFAFKKDTGDTRESSSIYISKYLMDEGAHLHIYDPKVPREQIVVDLSHPGVSEDDQVSRLVTISKDPYEACDGAHAVVICTEWDMFKELDYERIHKKMLKPAFIFDGRRVLDGLHNELQTIGFQIETIGKKVSSKRIPYAPSGEIPKFSLQDPPNKKPKV
notes: UDP-glucose 6-dehydrogenase, human
B2: UGDH S316D, phosphomimetic point mutant, recombinant (enzyme, human, UniProt O60701 1-494, looked up)
chain: B1 chain with A316D
notes: as for B1
B3: UDP-glucose 6-dehydrogenase (UGDH), human, wild type, recombinant (enzyme, UniProt O60701 1-494, looked up)
chain: B1 chain with A316S
notes: UDP-glucose 6-dehydrogenase, human; In solution a mix of hexamer (trimer of dimers) and dimer; also called UGDH WT; WT UGDH
B4: UGDH Δ132, hexameric mutant (enzyme, human)
chain: MFEIKKICCIGAGYVGGPTCSVIAHMCPEIRVTVVDVNESRINAWNSPTLPIYEPGLKEVVESCRGKNLFFSTNIDDAIKEADLVFISVNTPTKTYGMGKGRAADLKYIEACARRIVQNSNGYKIVTEKSTPVRAAESIRRIFDANTKPNLNLQVLSNPEFLAEGTAIKDLKNPDRVLIGGDETPEGQRAVQALCAVYEHWVPREKILTTNTWSSELSKLAANAFLAQRISSINSISALCEATGADVEEVATAIGMDQRIGNKFLKASVGFGGSCFQKDVLNLVYLCEALNLPEVARYWQQVIDMNDYQRRRFASRIIDSLFNTVTDKKIAILGFAFKKDTGDTRESSSIYISKYLMDEGAHLHIYDPKVPREQIVVDLSHPGVSEDDQVSRLVTISKDPYEACDGAHAVVICTEWDMFKELDYERIHKKMLKPAFIFDGRRVLDGLHNELQTIGFQIETIGKKV
notes: construct of earlier work; Named only once, as a control of the gel filtration
B5: UGDH T325D, obligate dimer mutant (enzyme, human)
chain: MFEIKKICCIGAGYVGGPTCSVIAHMCPEIRVTVVDVNESRINAWNSPTLPIYEPGLKEVVESCRGKNLFFSTNIDDAIKEADLVFISVNTPTKTYGMGKGRAADLKYIEACARRIVQNSNGYKIVTEKSTVPVRAAESIRRIFDANTKPNLNLQVLSNPEFLAEGTAIKDLKNPDRVLIGGDETPEGQRAVQALCAVYEHWVPREKILTTNTWSSELSKLAANAFLAQRISSINSISALCEATGADVEEVATAIGMDQRIGNKFLKASVGFGGSCFQKDVLNLVYLCEALNLPEVARYWQQVIDMNDYQRRRFASRIIDSLFNDVTDKKIAILGFAFKKDTGDTRESSSIYISKYLMDEGAHLHIYDPKVPREQIVVDLSHPGVSEDDQVSRLVTISKDPYEACDGAHAVVICTEWDMFKELDYERIHKKMLKPAFIFDGRRVLDGLHNELQTIGFQIETIGKKV
notes: UDP-glucose 6-dehydrogenase, human, with T325D; also called UGDH T325D dimeric mutant

Molecular target: the molecule itself
Experiment: SEC; gel filtration chromatography of the purified enzyme with substrate and cofactor added (holocomplex)

Row | Protein | stoichiometry N
1 | B1 | 6
2 | B2 | 6

Molecular target: the molecule itself
Experiment: SEC; gel filtration chromatography of the purified enzyme, before addition of substrate and cofactor; hexamer and dimer peaks

Row | Protein | stoichiometry N
3 | B3 | 6 and 2
4 | B1 | 2
5 | B2 | 2
6 | B4 | 6
7 | B5 | 2
